PMC3650583, “Dissection of Pilus Tip Assembly by the FimD Usher Monomer” (Journal of Molecular Biology, 2013)
Positions count from the first letter of the chain named. Names and notes keep the numbering of the source.

What was measured:
[1] = biological target: FimG (Escherichia coli (uropathogenic)) (UniProt P08190); test: donor strand exchange (DSE) assay, SDS-PAGE of the SDS-stable subunit:subunit product; 20 °C; 500 nM usher complex (acceptor subunit last in FimD:FimC:...) and 5 μM chaperone:subunit complex (donor), one subunit labelled with Alexa 647; quenched with HCl (quench flow for the fast reactions); fitted to Eq. (1) with KinTek Explorer
[2] = biological target: FimF (Escherichia coli (uropathogenic)) (UniProt P08189); test: as above
[3] = biological target: FimH (Escherichia coli (uropathogenic)) (UniProt P08191); test: as above
[4] = biological target: FimD:FimC:FimH complex (Escherichia coli (uropathogenic)) (UniProt P30130); test: AUC; sedimentation velocity of purified FimD:FimC:FimH at the higher concentrations (> 1 μM, up to 4.3 μM); 20 °C, 42,000 rpm, absorbance optics; 50 mM Tris pH 8.0, 150 mM NaCl, 1 mM EDTA, 0.05% DDM; c(s) by SedFit; Kd of usher dimerisation (dimer to monomers) estimated by integrating the monomer and dimer peaks at 4.3 μM
[5] = biological target: the molecule itself; test: AUC; sedimentation velocity of FimD alone at 5 μM and 2 μM; 20 °C, 42,000 rpm; 50 mM Tris pH 8.0, 150 mM NaCl, 1 mM EDTA, 0.05% DDM; monomer to dimer
FimF [6] = biological target: T1, FimF (Escherichia coli (uropathogenic), UniProt P08189 21-176); test: donor strand exchange (DSE) assay, SDS-PAGE of the SDS-stable subunit:subunit product; 20 °C; FimD:FimC:FimH:FimG and FimC:FimF both unlabelled; silver staining and densitometry of the FimH:FimG:FimF product; settings: both partners purified
T1 construct: also called unlabelled FimF; FimC:FimF (as chaperone complex)
T1 sequence: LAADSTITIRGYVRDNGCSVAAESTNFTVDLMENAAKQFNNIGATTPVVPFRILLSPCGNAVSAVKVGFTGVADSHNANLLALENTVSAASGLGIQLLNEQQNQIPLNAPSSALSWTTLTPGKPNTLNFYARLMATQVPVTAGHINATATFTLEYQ

[7] = biological target: the molecule itself; test: donor strand exchange (DSE) assay, SDS-PAGE of the SDS-stable subunit:subunit product; spontaneous (non-usher mediated) formation of FimG polymers from FimC:FimG during the slow reactions
[8] = biological target: FimF^Q99C[A647] (Escherichia coli (uropathogenic)); test: donor strand exchange (DSE) assay, SDS-PAGE of the SDS-stable subunit:subunit product; 20 °C; 500 nM usher complex (acceptor subunit last in FimD:FimC:...) and 5 μM chaperone:subunit complex (donor), one subunit labelled with Alexa 647; quenched with HCl (quench flow for the fast reactions); fitted to Eq. (1) with KinTek Explorer
FimF [9] = biological target: T1, FimF; test: as above; settings: both partners purified

Molecule: FimF^Q99C[A647] (natural protein)
- kDSE (rate of donor strand exchange, 20 °C) [1]: 0.0527 s⁻¹
- kDSE (rate of donor strand exchange, 20 °C) [2]: 0.00598 s⁻¹
- kDSE (rate of donor strand exchange, 20 °C) [3]: 0.972 s⁻¹

Molecule: FimD:FimC:FimH complex (from UniProt P30130;P31697;P08191)
- Kd [4]: 20 µM

B1: FimD usher (natural protein)
chain: DLYFNPRFLADDPQAVADLSRFENGQELPPGTYRVDIYLNNGYMATRDVTFNTGDSEQGIVPCLTRAQLASMGLNTASVAGMNLLADDACVPLTTMVQDATAHLDVGQQRLNLTIPQAFMSNRARGYIPPELWDPGINAGLLNYNFSGNSVQNRIGGNSHYAYLNLQSGLNIGAWRLRDNTTWSYNSSDRSSGSKNKWQHINTWLERDIIPLRSRLTLGDGYTQGDIFDGINFRGAQLASDDNMLPDSQRGFAPVIHGIARGTAQVTIKQNGYDIYNSTVPPGPFTINDIYAAGNSGDLQVTIKEADGSTQIFTVPYSSVPLLQREGHTRYSITAGEYRSGNAQQEKTRFFQSTLLHGLPAGWTIYGGTQLADRYRAFNFGIGKNMGALGALSVDMTQANSTLPDDSQHDGQSVRFLYNKSLNESGTNIQLVGYRYSTSGYFNFADTTYSRMNGYNIETQDGVIQVKPKFTDYYNLAYNKRGKLQLTVTQQLGRTSTLYLSGSHQTYWGTSNVDEQFQAGLNTAFEDINWTLSYSLTKNAWQKGRDQMLALNVNIPFSHWLRSDSKSQWRHASASYSMSHDLNGRMTNLAGVYGTLLEDNNLSYSVQTGYAGGGDGNSGSTGYATLNYRGGYGNANIGYSHSDDIKQLYYGVSGGVLAHANGVTLGQPLNDTVVLVKAPGAKDAKVENQTGVRTDWRGYAVLPYATEYRENRVALDTNTLADNVDLDNAVANVVPTRGAIVRAEFKARVGIKLLMTLTHNNKPLPFGAMVTSESSQSSGIVADNGQVYLSGMPLAGKVQVKWGEEENAHCVANYQLPPESQQQLLTQLSAECR
notes: also called apo FimD; the usher; source: in 0.05% DDM
- stoichiometry N [5]: 2

B2: FimG (natural protein)
chain: ADVTITVNGKVVAKPCTVSTTNATVDLGDLYSFSLMSAGAASAWHDVALELTNCPVGTSRVTASFSGAADSTGYYKNQGTAQNIQLELQDDSGNTLNTGATKTVQVDDSSQSAHFPLQVRALTVNGGATQGTIQAVISITYTYS
notes: also called unlabelled FimG; FimC:FimG (as chaperone complex)
- binding result (FimF [6]): binds
- binding result [7]: binds
- kDSE (rate of donor strand exchange, 20 °C) [8]: 0.00543 s⁻¹

B3: FimG^S92C[A647] (natural protein)
chain: B2 chain with S92C
modifications: fluorescent Alexa 647 label at position 92 (on S92C)
- binding result (FimF [9]): binds
